# Target: IL-12 receptors (human) (UniProt P42701)
# Assay: cell-based or functional assay
# Sequence of IL-12 receptors (human) (Q99665 24-862, chain 2 of 2, other chains not shown): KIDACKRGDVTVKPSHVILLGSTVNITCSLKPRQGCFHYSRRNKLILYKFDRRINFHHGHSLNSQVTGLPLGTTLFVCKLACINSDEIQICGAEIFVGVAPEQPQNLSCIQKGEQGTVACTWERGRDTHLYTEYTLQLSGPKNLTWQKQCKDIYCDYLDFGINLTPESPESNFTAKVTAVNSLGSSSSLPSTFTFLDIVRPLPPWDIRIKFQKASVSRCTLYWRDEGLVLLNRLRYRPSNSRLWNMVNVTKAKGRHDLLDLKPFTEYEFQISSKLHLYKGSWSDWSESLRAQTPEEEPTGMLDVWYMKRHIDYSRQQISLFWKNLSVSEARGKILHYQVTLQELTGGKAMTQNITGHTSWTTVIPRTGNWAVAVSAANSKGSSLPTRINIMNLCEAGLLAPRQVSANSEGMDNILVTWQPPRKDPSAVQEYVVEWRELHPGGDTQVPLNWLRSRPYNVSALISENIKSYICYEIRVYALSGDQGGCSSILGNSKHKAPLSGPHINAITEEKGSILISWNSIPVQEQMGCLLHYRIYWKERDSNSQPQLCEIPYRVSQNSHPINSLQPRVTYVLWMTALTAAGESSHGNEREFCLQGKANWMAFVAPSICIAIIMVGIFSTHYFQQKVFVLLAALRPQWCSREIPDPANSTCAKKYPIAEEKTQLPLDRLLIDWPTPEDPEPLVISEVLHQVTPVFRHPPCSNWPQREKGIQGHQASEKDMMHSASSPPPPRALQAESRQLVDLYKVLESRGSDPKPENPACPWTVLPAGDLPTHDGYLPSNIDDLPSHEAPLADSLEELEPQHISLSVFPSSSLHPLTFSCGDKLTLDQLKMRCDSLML
row,reduction in potency (EC50 for STAT4 phosphorylation) relative to WT IL-12-Fc XENP27201 [fold],Substance
1,> 2,IL-12-Fc fusion comprising IL-12p40(E235Q) (from UniProt P29460 23-328; P29459 23-219)
2,> 2,IL-12-Fc fusion comprising IL-12p35(E153Q) (from UniProt P29460 23-328; P29459 23-219)
3,2,IL-12-Fc fusion comprising IL-12p35(D55Q/N151D) (from UniProt P29460 23-328; P29459 23-219)

# Source: patent publication US20210355185A1
